The values below come from publication PMC3515676.

Common to all, as to test: purified protein
Holding throughout (type): biochemical, Danio rerio

Data set [1] has as its system C[C@H](CCC(=O)NCC(=O)O)[C@H]1CC[C@H]2[C@@H]3[C@H](O)C[C@@H]4C[C@H](O)CC[C@]4(C)[C@H]3CC[C@]12C. As to conditions: 14 μM PAP[35S], 50 mM Taps pH 8.5, 28 °C, pH 8.5.
Data set [2] concerns C[C@H](CCC(=O)O)[C@H]1CC[C@H]2[C@@H]3CC[C@@H]4C[C@H](O)CC[C@]4(C)[C@H]3CC[C@]12C. As to conditions: 14 μM PAP[35S], 50 mM Taps pH 8.5, 28 °C, pH 8.5.
Data set [3] has as its system C[C@H](CCC(=O)O)[C@H]1CC[C@H]2[C@@H]3[C@H](O)C[C@@H]4C[C@H](O)CC[C@]4(C)[C@H]3CC[C@]12C. The note with it: 14 μM PAP[35S], 50 mM Taps pH 8.5, 28 °C, pH 8.5.
For data set [4], the system named is C[C@H](CCCO)[C@H]1CC[C@H]2[C@@H]3[C@H](O)C[C@H]4C[C@H](O)CC[C@]4(C)[C@H]3C[C@H](O)[C@]12C. The note with it: 14 μM PAP[35S], 50 mM Mes pH 6.0, 28 °C, pH 6.0.

In general, Km refers to the substrate concentration at which the rate is half of its maximum. A word on the Vmax: it is the rate approached at saturating substrate. Take “Zebra danio SULT3 ST2 (ZF SULT3 ST2) (Danio rerio)”: the Michaelis constant (Km) in data set [1] turned out to be 19.89 ± 1.32 µM; in data set [2], 6.00 ± 0.55 µM; in data set [3], 21.75 ± 2.74 µM; in data set [4] it was 22.36 ± 1.47 µM. Besides, the Vmax is 0.00097 µmol/min/mg in data set [1], 0.00051 µmol/min/mg in data set [2], 0.00075 µmol/min/mg in data set [3] and 0.00254 µmol/min/mg in data set [4].
